Source: patent publication US20150344570A1 (published 2015)

Molecular target: T1, FcγRIa (human, UniProt P12314 16-292)
T1 construct: extracellular domain; Soluble extracellular domain expressed in FreeStyle293 cells, used as analyte in Biacore; also called FcgRI; 1a; not shown: His tag attached to the C terminus
Experiment: SPR (Biacore); Ho Ab vs HoCon Ab GpH7-B3/GpL16-k0
Experimental: Analysis of interaction between objective antibody and the FcγR was carried out using Biacore T100 (GE Healthcare). HBS-EP+ (GE Healthcare) was used as the running buffer, and the measurement temperature was set to 25° C. Chips produced by immobilizing the antigen peptide by the amine coupling method to a Series S Sencor Chip CM5 (GE Healthcare), or alternatively, chips produced by allowing preliminarily biotinylated antigen peptides to interact with and immobilize onto a Series S Sensor Chip SA (certified) (GE Healthcare) were used. Antibodies of interest were captured onto an antigen peptide-immobilized chip, and allowed to interact to each FcγR diluted with running buffer. To regenerate and repeatedly use the chip, the antibodies captured on the chip were washed off by reacting 10 mM glycine-HCl, pH 1.5.

T1 sequence (P12314 16-292): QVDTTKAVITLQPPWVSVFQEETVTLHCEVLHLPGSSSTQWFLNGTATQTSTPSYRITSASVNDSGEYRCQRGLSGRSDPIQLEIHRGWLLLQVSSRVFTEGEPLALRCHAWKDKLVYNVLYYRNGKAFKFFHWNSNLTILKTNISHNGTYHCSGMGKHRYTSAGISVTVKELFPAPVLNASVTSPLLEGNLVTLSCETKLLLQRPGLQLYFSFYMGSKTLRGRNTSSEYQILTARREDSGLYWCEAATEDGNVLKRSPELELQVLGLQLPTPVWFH

| Binder | Ho/Con_1a |
| --- | --- |
| GpH7-B3 variant S298_01G/GpL16-k0 (antibody, human IgG1, kappa, also called Ho Ab S298_01G) heavy: not shown light: DIVMTQSPLSLPVTPGEPASISCQASESLVHSNRNTYLHWYLQKPGQSPQLLIYKVSNRFSGVPDRFSGSGSGTDFTLKISRVEAEDVGVYYCSQNTHVPPTFGQGTKVEIERTVAAPSVFIFPPSDEQLKSGTASVVCLLNNFYPREAKVQWKVDNALQSGNSQESVTEQDSKDSTYSLSSTLTLSKADYEKHKVYACEVTHQGLSSPVTKSFNRGEC | 103 relative binding, control = 100 |
| GpH7-B3 variant S298_16H/GpL16-k0 (antibody, human IgG1, kappa, also called Ho Ab S298_16H) heavy: not shown light: DIVMTQSPLSLPVTPGEPASISCQASESLVHSNRNTYLHWYLQKPGQSPQLLIYKVSNRFSGVPDRFSGSGSGTDFTLKISRVEAEDVGVYYCSQNTHVPPTFGQGTKVEIERTVAAPSVFIFPPSDEQLKSGTASVVCLLNNFYPREAKVQWKVDNALQSGNSQESVTEQDSKDSTYSLSSTLTLSKADYEKHKVYACEVTHQGLSSPVTKSFNRGEC | 107 relative binding, control = 100 |
| GpH7-B3 variant S298_08L/GpL16-k0 (antibody, human IgG1, kappa, also called Ho Ab S298_08L) heavy: not shown light: DIVMTQSPLSLPVTPGEPASISCQASESLVHSNRNTYLHWYLQKPGQSPQLLIYKVSNRFSGVPDRFSGSGSGTDFTLKISRVEAEDVGVYYCSQNTHVPPTFGQGTKVEIERTVAAPSVFIFPPSDEQLKSGTASVVCLLNNFYPREAKVQWKVDNALQSGNSQESVTEQDSKDSTYSLSSTLTLSKADYEKHKVYACEVTHQGLSSPVTKSFNRGEC | 104 relative binding, control = 100 |
| GpH7-B3 variant S298_10E/GpL16-k0 (antibody, human IgG1, kappa, also called Ho Ab S298_10E) heavy: not shown light: DIVMTQSPLSLPVTPGEPASISCQASESLVHSNRNTYLHWYLQKPGQSPQLLIYKVSNRFSGVPDRFSGSGSGTDFTLKISRVEAEDVGVYYCSQNTHVPPTFGQGTKVEIERTVAAPSVFIFPPSDEQLKSGTASVVCLLNNFYPREAKVQWKVDNALQSGNSQESVTEQDSKDSTYSLSSTLTLSKADYEKHKVYACEVTHQGLSSPVTKSFNRGEC | 106 relative binding, control = 100 |
| GpH7-B3 variant S298_07I/GpL16-k0 (antibody, human IgG1, kappa, also called Ho Ab S298_07I) heavy: not shown light: DIVMTQSPLSLPVTPGEPASISCQASESLVHSNRNTYLHWYLQKPGQSPQLLIYKVSNRFSGVPDRFSGSGSGTDFTLKISRVEAEDVGVYYCSQNTHVPPTFGQGTKVEIERTVAAPSVFIFPPSDEQLKSGTASVVCLLNNFYPREAKVQWKVDNALQSGNSQESVTEQDSKDSTYSLSSTLTLSKADYEKHKVYACEVTHQGLSSPVTKSFNRGEC | 103 relative binding, control = 100 |
| GpH7-B3 variant S324_03V/GpL16-k0 (antibody, human IgG1, kappa, also called Ho Ab S324_03V) heavy: not shown light: DIVMTQSPLSLPVTPGEPASISCQASESLVHSNRNTYLHWYLQKPGQSPQLLIYKVSNRFSGVPDRFSGSGSGTDFTLKISRVEAEDVGVYYCSQNTHVPPTFGQGTKVEIERTVAAPSVFIFPPSDEQLKSGTASVVCLLNNFYPREAKVQWKVDNALQSGNSQESVTEQDSKDSTYSLSSTLTLSKADYEKHKVYACEVTHQGLSSPVTKSFNRGEC | 103 relative binding, control = 100 |
| GpH7-B3 variant S324_11K/GpL16-k0 (antibody, human IgG1, kappa, also called Ho Ab S324_11K) heavy: not shown light: DIVMTQSPLSLPVTPGEPASISCQASESLVHSNRNTYLHWYLQKPGQSPQLLIYKVSNRFSGVPDRFSGSGSGTDFTLKISRVEAEDVGVYYCSQNTHVPPTFGQGTKVEIERTVAAPSVFIFPPSDEQLKSGTASVVCLLNNFYPREAKVQWKVDNALQSGNSQESVTEQDSKDSTYSLSSTLTLSKADYEKHKVYACEVTHQGLSSPVTKSFNRGEC | 100 relative binding, control = 100 |
| GpH7-B3 variant S324_08L/GpL16-k0 (antibody, human IgG1, kappa, also called Ho Ab S324_08L) heavy: not shown light: DIVMTQSPLSLPVTPGEPASISCQASESLVHSNRNTYLHWYLQKPGQSPQLLIYKVSNRFSGVPDRFSGSGSGTDFTLKISRVEAEDVGVYYCSQNTHVPPTFGQGTKVEIERTVAAPSVFIFPPSDEQLKSGTASVVCLLNNFYPREAKVQWKVDNALQSGNSQESVTEQDSKDSTYSLSSTLTLSKADYEKHKVYACEVTHQGLSSPVTKSFNRGEC | 103 relative binding, control = 100 |
| GpH7-B3 variant S298_12R/GpL16-k0 (antibody, human IgG1, kappa, also called Ho Ab S298_12R) heavy: not shown light: DIVMTQSPLSLPVTPGEPASISCQASESLVHSNRNTYLHWYLQKPGQSPQLLIYKVSNRFSGVPDRFSGSGSGTDFTLKISRVEAEDVGVYYCSQNTHVPPTFGQGTKVEIERTVAAPSVFIFPPSDEQLKSGTASVVCLLNNFYPREAKVQWKVDNALQSGNSQESVTEQDSKDSTYSLSSTLTLSKADYEKHKVYACEVTHQGLSSPVTKSFNRGEC | 94.5 relative binding, control = 100 |
| GpH7-B3 variant S298_06M/GpL16-k0 (antibody, human IgG1, kappa, also called Ho Ab S298_06M) heavy: not shown light: DIVMTQSPLSLPVTPGEPASISCQASESLVHSNRNTYLHWYLQKPGQSPQLLIYKVSNRFSGVPDRFSGSGSGTDFTLKISRVEAEDVGVYYCSQNTHVPPTFGQGTKVEIERTVAAPSVFIFPPSDEQLKSGTASVVCLLNNFYPREAKVQWKVDNALQSGNSQESVTEQDSKDSTYSLSSTLTLSKADYEKHKVYACEVTHQGLSSPVTKSFNRGEC | 106 relative binding, control = 100 |
| GpH7-B3 variant S324_02A/GpL16-k0 (antibody, human IgG1, kappa, also called Ho Ab S324_02A) heavy: not shown light: DIVMTQSPLSLPVTPGEPASISCQASESLVHSNRNTYLHWYLQKPGQSPQLLIYKVSNRFSGVPDRFSGSGSGTDFTLKISRVEAEDVGVYYCSQNTHVPPTFGQGTKVEIERTVAAPSVFIFPPSDEQLKSGTASVVCLLNNFYPREAKVQWKVDNALQSGNSQESVTEQDSKDSTYSLSSTLTLSKADYEKHKVYACEVTHQGLSSPVTKSFNRGEC | 103 relative binding, control = 100 |
| GpH7-B3 variant S298_02A/GpL16-k0 (antibody, human IgG1, kappa, also called Ho Ab S298_02A) heavy: not shown light: DIVMTQSPLSLPVTPGEPASISCQASESLVHSNRNTYLHWYLQKPGQSPQLLIYKVSNRFSGVPDRFSGSGSGTDFTLKISRVEAEDVGVYYCSQNTHVPPTFGQGTKVEIERTVAAPSVFIFPPSDEQLKSGTASVVCLLNNFYPREAKVQWKVDNALQSGNSQESVTEQDSKDSTYSLSSTLTLSKADYEKHKVYACEVTHQGLSSPVTKSFNRGEC | 106 relative binding, control = 100 |
| GpH7-B3 variant S298_15Y/GpL16-k0 (antibody, human IgG1, kappa, also called Ho Ab S298_15Y) heavy: not shown light: DIVMTQSPLSLPVTPGEPASISCQASESLVHSNRNTYLHWYLQKPGQSPQLLIYKVSNRFSGVPDRFSGSGSGTDFTLKISRVEAEDVGVYYCSQNTHVPPTFGQGTKVEIERTVAAPSVFIFPPSDEQLKSGTASVVCLLNNFYPREAKVQWKVDNALQSGNSQESVTEQDSKDSTYSLSSTLTLSKADYEKHKVYACEVTHQGLSSPVTKSFNRGEC | 103 relative binding, control = 100 |
| GpH7-B3 variant S298_18N/GpL16-k0 (antibody, human IgG1, kappa, also called Ho Ab S298_18N) heavy: not shown light: DIVMTQSPLSLPVTPGEPASISCQASESLVHSNRNTYLHWYLQKPGQSPQLLIYKVSNRFSGVPDRFSGSGSGTDFTLKISRVEAEDVGVYYCSQNTHVPPTFGQGTKVEIERTVAAPSVFIFPPSDEQLKSGTASVVCLLNNFYPREAKVQWKVDNALQSGNSQESVTEQDSKDSTYSLSSTLTLSKADYEKHKVYACEVTHQGLSSPVTKSFNRGEC | 104 relative binding, control = 100 |
| GpH7-B3 variant S298_20W/GpL16-k0 (antibody, human IgG1, kappa, also called Ho Ab S298_20W) heavy: not shown light: DIVMTQSPLSLPVTPGEPASISCQASESLVHSNRNTYLHWYLQKPGQSPQLLIYKVSNRFSGVPDRFSGSGSGTDFTLKISRVEAEDVGVYYCSQNTHVPPTFGQGTKVEIERTVAAPSVFIFPPSDEQLKSGTASVVCLLNNFYPREAKVQWKVDNALQSGNSQESVTEQDSKDSTYSLSSTLTLSKADYEKHKVYACEVTHQGLSSPVTKSFNRGEC | 71.5 relative binding, control = 100 |
| GpH7-B3 variant S298_04F/GpL16-k0 (antibody, human IgG1, kappa, also called Ho Ab S298_04F) heavy: not shown light: DIVMTQSPLSLPVTPGEPASISCQASESLVHSNRNTYLHWYLQKPGQSPQLLIYKVSNRFSGVPDRFSGSGSGTDFTLKISRVEAEDVGVYYCSQNTHVPPTFGQGTKVEIERTVAAPSVFIFPPSDEQLKSGTASVVCLLNNFYPREAKVQWKVDNALQSGNSQESVTEQDSKDSTYSLSSTLTLSKADYEKHKVYACEVTHQGLSSPVTKSFNRGEC | 107 relative binding, control = 100 |
| GpH7-B3 variant S298_03V/GpL16-k0 (antibody, human IgG1, kappa, also called Ho Ab S298_03V) heavy: not shown light: DIVMTQSPLSLPVTPGEPASISCQASESLVHSNRNTYLHWYLQKPGQSPQLLIYKVSNRFSGVPDRFSGSGSGTDFTLKISRVEAEDVGVYYCSQNTHVPPTFGQGTKVEIERTVAAPSVFIFPPSDEQLKSGTASVVCLLNNFYPREAKVQWKVDNALQSGNSQESVTEQDSKDSTYSLSSTLTLSKADYEKHKVYACEVTHQGLSSPVTKSFNRGEC | 106 relative binding, control = 100 |
| GpH7-B3 variant S324_12R/GpL16-k0 (antibody, human IgG1, kappa, also called Ho Ab S324_12R) heavy: not shown light: DIVMTQSPLSLPVTPGEPASISCQASESLVHSNRNTYLHWYLQKPGQSPQLLIYKVSNRFSGVPDRFSGSGSGTDFTLKISRVEAEDVGVYYCSQNTHVPPTFGQGTKVEIERTVAAPSVFIFPPSDEQLKSGTASVVCLLNNFYPREAKVQWKVDNALQSGNSQESVTEQDSKDSTYSLSSTLTLSKADYEKHKVYACEVTHQGLSSPVTKSFNRGEC | 101 relative binding, control = 100 |
| GpH7-B3 variant S324_14T/GpL16-k0 (antibody, human IgG1, kappa, also called Ho Ab S324_14T) heavy: not shown light: DIVMTQSPLSLPVTPGEPASISCQASESLVHSNRNTYLHWYLQKPGQSPQLLIYKVSNRFSGVPDRFSGSGSGTDFTLKISRVEAEDVGVYYCSQNTHVPPTFGQGTKVEIERTVAAPSVFIFPPSDEQLKSGTASVVCLLNNFYPREAKVQWKVDNALQSGNSQESVTEQDSKDSTYSLSSTLTLSKADYEKHKVYACEVTHQGLSSPVTKSFNRGEC | 112 relative binding, control = 100 |
| GpH7-B3 variant S298_14T/GpL16-k0 (antibody, human IgG1, kappa, also called Ho Ab S298_14T) heavy: not shown light: DIVMTQSPLSLPVTPGEPASISCQASESLVHSNRNTYLHWYLQKPGQSPQLLIYKVSNRFSGVPDRFSGSGSGTDFTLKISRVEAEDVGVYYCSQNTHVPPTFGQGTKVEIERTVAAPSVFIFPPSDEQLKSGTASVVCLLNNFYPREAKVQWKVDNALQSGNSQESVTEQDSKDSTYSLSSTLTLSKADYEKHKVYACEVTHQGLSSPVTKSFNRGEC | 106 relative binding, control = 100 |
| GpH7-B3 variant S298_19Q/GpL16-k0 (antibody, human IgG1, kappa, also called Ho Ab S298_19Q) heavy: not shown light: DIVMTQSPLSLPVTPGEPASISCQASESLVHSNRNTYLHWYLQKPGQSPQLLIYKVSNRFSGVPDRFSGSGSGTDFTLKISRVEAEDVGVYYCSQNTHVPPTFGQGTKVEIERTVAAPSVFIFPPSDEQLKSGTASVVCLLNNFYPREAKVQWKVDNALQSGNSQESVTEQDSKDSTYSLSSTLTLSKADYEKHKVYACEVTHQGLSSPVTKSFNRGEC | 105 relative binding, control = 100 |
